Laboratory results as given in article PMC10049462, “Molecular Structure of Phosphoserine Aminotransferase from Saccharomyces cerevisiae” (International Journal of Molecular Sciences, 2023).

Target: the molecule itself
Experiment: crystal structure; sitting-drop vapor diffusion at 20 °C; optimized crystals from 2.4 M ammonium sulfate, 0.1 M citric acid pH 3.5; space group P3(1)21; 2.8 Å; apo form; dimer in the asymmetric unit

B1: Saccharomyces cerevisiae phosphoserine aminotransferase (enzyme, S. cerevisiae, UniProt P33330 1-395, looked up)
chain: MSLEREEPQHFGAGPAQMPTPVLQQAAKDLINFNDIGLGIGEISHRSKDATKVIEDSKKHLIELLNIPDTHEVFYLQGGGTTGFSSVATNLAAAYVGKHGKIAPAGYLVTGSWSQKSFEEAKRLHVPAEVIFNAKDYNNGKFGKIPDESLWEDKIKGKAFSYVYLCENETVHGVEWPELPKCLVNDPNIEIVADLSSDILSRKIDVSQYGVIMAGAQKNIGLAGLTLYIIKKSILKNISGASDETLHELGVPITPIAFDYPTVVKNNSAYNTIPIFTLHVMDLVFQHILKKGGVEAQQAENEEKAKILYEALDANSDFYNVPVDPKCRSKMNVVFTLKKDGLDDQFLKEAAARHLTGLKGHRSVGGFRASIYNALSVKAVQNLVDFIKEFAEKNA
notes: Phosphoserine aminotransferase (PSAT) of S. cerevisiae, encoded by SER1; full-length gene amplified from genomic DNA and cloned into pET28a; residues 1-395 (large domain 54-293, small domain 294-395); apo form without PLP; residues 1-53, 218-220 and 268-271 not modelled in the crystal structure; they may come from different strains; also called ScPSAT; PSAT; source: E. coli BL21 (DE3) Star, …
Q: Which “stoichiometry N” value does the source give for B1 here?
A: 2
